Here are results for one molecule from US20200190193A1 (INHIBRX, published 2020).

The target in this test is human PD-1 (programmed cell death protein-1) (human, UniProt Q15116 25-288). The experiment in a line: flow cytometry on enriched, anti-CD3-activated human T cells; sdAb-Fc titrated 167 nM to 0.00847 nM, anti-human IgG Alexa Fluor 647 detection. On the technique in general: A flow cytometer gives signals particle by particle.
Sequence of human PD-1 (programmed cell death protein-1) (Q15116 25-288 limits assumed): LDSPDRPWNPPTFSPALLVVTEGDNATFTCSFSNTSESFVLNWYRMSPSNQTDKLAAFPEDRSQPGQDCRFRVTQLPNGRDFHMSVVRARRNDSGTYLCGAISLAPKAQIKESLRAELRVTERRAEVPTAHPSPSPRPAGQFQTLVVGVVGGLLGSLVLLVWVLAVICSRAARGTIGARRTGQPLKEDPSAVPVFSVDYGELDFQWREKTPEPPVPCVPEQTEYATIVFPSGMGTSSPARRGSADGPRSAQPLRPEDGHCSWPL

Experimental: For enrichment and activation of human T cells, Peripheral blood mononuclear cells (PBMCs) were isolated from human donor blood using density gradient centrifugation. Blood samples were diluted with PBS/2% FBS (1:2) and 30 mL of diluted blood was layered onto 15 mL of Lymphoprep density gradient medium. After centrifugation, the PBMC layer at the interphase of plasma and Lymphoprep was removed and remaining red blood cells were lysed using red blood cell lysis buffer for 5 minutes at room temperature. Non-T cell populations were labeled with biotinylated anti-lineage marker antibodies against CD14, CD16, CD19, CD20, CD36, CD56, CD123, TCR γ/δ (20 minutes, room temperature) and depleted using magnetic streptavidin particles. The unbound cell supernatant containing the T cell fraction was retained. Enriched human T cells were activated for 3 days by plating them at a density of about 2×10⁶ cells per mL media in tissue culture plates coated with 1 μg/mL mouse anti-human CD3 (OKT3). Activated T cells were washed once in PBS before further use in binding assays.

B1: hz18H10v7 PD-1 sdAb-Fc fusion protein (humanized variant of 18H10) (Fc fusion)
chain: EVQLVESGGGEVQPGGSLRLSCAASGSITGANTMGWYRQAPGKQRDLVALIGNYVTHYAESVKGRFTISRDNAKNTVYLQMSSLRAEDTAVYYCYLYTDNLGTSWGQGTLVTVKP
notes: also called humanized 18H10 (hzv7); hzv7; not shown: hinge/linker and Fc of the sdAb-Fc fusion are not specified for the humanized variants
In the case of B1, the binding result is given as “binds”.
